This experiment has as its target Tsr (Escherichia coli, UniProt P02942).

Tsr, sequence (P02942 whole entry): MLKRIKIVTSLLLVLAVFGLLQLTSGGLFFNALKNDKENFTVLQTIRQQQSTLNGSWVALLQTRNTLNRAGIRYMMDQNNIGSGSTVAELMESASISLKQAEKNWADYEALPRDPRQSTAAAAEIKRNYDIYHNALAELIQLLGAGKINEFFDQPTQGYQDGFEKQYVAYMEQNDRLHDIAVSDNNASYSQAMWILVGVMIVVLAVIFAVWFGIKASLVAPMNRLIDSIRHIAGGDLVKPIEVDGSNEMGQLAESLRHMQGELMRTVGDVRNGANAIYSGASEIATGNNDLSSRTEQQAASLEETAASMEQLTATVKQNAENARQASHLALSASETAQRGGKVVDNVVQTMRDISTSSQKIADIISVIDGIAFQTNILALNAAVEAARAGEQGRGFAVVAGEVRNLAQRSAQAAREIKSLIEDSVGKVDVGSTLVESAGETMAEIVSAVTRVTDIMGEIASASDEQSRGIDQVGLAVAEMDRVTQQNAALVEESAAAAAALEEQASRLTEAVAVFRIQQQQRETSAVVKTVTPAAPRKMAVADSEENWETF

B1: CheW (protein)
chain: MTGMTNVTKLASEPSGQEFLVFTLGDEEYGIDILKVQEIRGYDQVTRIANTPAFIKGVTNLRGVIVPIVDLRIKFSQVDVDYNDNTVVIVLNLGQRVVGIVVDGVSDVLSLTAEQIRPAPEFAVTLSTEYLTGLGALGDRMLILVNIEKLLNSEEMALLDSAASEVA
In general, Kd refers to the free concentration of one partner at which half of the binding sites on the other are occupied at equilibrium, for simple one-to-one binding. A high value points to lower affinity. B1 registered a Kd of about 10 µM.

The values are drawn from publication PMC1079850 (2005).
